Drawing on PMC7560960 (Cellular microbiology, 2018), this text covers Kd for 2 molecules.

The target in assay [1] is E-cadherin (Homo sapiens) (UniProt P12830). Particulars: cited from earlier work.
Assay [2] deals with T1, recombinant human E-Cad (Gln23 - Pro621 fused to human IgG Fc) (human, UniProt P12830 23-621).
T1 sequence (looked up): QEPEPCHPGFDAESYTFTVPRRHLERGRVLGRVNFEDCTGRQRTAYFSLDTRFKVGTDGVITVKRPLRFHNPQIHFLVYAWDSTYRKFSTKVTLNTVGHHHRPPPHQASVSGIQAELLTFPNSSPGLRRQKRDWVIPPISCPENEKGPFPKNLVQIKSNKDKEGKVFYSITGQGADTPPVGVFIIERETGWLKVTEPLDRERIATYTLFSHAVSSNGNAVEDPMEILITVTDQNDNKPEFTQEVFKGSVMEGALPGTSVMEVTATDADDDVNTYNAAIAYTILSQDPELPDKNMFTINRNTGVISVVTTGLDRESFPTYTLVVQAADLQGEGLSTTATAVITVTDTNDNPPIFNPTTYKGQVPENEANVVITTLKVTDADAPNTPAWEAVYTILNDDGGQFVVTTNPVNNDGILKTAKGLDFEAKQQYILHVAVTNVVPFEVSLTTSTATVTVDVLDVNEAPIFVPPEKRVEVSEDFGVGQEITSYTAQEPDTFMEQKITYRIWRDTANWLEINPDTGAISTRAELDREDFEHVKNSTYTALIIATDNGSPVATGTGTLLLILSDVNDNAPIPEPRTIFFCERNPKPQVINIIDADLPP
In words: SPR. (SPR reads the build-up and loss of mass on a sensor chip optically.)

Assay [3] addresses T2, recombinant human VE-cad (Asp48-Gln593 fused to human IgG Fc) (human, UniProt P33151 48-593).
T2 sequence (looked up): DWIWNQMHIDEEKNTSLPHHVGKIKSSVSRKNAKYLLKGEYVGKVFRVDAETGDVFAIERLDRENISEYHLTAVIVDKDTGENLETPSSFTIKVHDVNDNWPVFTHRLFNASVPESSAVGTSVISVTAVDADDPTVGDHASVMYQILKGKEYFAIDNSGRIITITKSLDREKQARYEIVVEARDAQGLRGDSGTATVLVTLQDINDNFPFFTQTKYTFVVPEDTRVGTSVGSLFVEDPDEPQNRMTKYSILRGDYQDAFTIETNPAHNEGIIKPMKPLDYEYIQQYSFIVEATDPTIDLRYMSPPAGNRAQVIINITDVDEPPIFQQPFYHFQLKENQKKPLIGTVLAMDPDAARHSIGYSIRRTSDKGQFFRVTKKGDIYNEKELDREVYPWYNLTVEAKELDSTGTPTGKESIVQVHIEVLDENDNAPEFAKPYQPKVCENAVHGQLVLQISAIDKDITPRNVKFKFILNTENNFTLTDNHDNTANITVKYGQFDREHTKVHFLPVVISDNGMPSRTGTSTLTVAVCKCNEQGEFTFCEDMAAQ
In words: SPR.

E-cadherin (Homo sapiens), sequence (P12830 155-709): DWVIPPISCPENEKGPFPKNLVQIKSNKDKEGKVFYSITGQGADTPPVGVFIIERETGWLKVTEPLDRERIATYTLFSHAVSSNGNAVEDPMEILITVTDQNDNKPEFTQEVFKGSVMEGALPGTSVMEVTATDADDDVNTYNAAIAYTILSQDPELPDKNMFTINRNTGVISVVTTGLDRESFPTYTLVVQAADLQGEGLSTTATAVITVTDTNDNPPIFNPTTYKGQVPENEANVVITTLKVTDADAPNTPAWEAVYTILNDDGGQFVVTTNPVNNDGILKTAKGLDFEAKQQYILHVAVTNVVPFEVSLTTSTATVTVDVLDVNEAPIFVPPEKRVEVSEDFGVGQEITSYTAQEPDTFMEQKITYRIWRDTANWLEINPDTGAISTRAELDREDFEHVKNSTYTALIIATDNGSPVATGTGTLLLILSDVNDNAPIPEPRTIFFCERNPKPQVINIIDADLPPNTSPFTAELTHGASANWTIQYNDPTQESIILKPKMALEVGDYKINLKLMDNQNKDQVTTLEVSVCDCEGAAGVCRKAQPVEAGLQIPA

For orientation: Kd means the constant that tells how readily two partners part at equilibrium. Consider InlA (from UniProt P0DJM0), for which the Kd in assay [1] is 8 µM.

B1: recombinant LIC10831, histidine tag removed (natural protein)
chain: EEPGTYRDLTKALQNPLEVRVLDLSRQELKTLPIEIGKLKNLQRLYLHYNQLTVLPQEIEQLKNLQLLYLRSNRLTTLPKEIEQLKNLQVLDLGSNQLTVLPQEIEQLKNLQLLYLHSNRLTTLSKDIEQLQNLKSLDLSNNQLTTLPNEIEQLKNLKSLYLSENQFATFPKEIGQLQNLKVLFLNNNQITILPNEIAKLKKLQYLYLSDNQLITLPKEIEQLKNLQTLDLSYNQLTILPKEVGQLENLQTLDLRNNQLKTLPKEIEQLKNLQTLFLSNNQLTILPQEIGKLKNLLWLSLVYNQLTTLPNEIEQLKNLQTLYLNNNQFSSQEKKRIRKLLPKCQIYFD
On to B1, for which the figures for the Kd in assay [2] and in assay [3] were 2.3 µM and 5.8 µM, respectively.
